Patent publication US20140256820A1, “THERAPEUTIC AGENT FOR BLOOD-BRAIN BARRIER DISRUPTION SYNDROME” (FUKUOKA UNIVERSITY, priority 2010, published 2014)

Test system: rat brain endothelial cells: RBECs
Assay type: cell-based
Procedure: Thus, a “t-PA-induced BBB dysfunction model” was prepared by the loading of ischemia and t-PA onto an in vitro BBB model. […] The resulting sample was left for 48 hours under 95% N2/5% CO2 (ischemia) conditions. Then, the permeability test was conducted.

t-PA: tissue plasminogen activator, a thrombolytic drug for cerebral infarction; t-PA injection (Activacin; Kyowa Hakko Kirin Co., Ltd.)
permeability of albumin (Evans blue-albumin: EBA) on loading of t-PA under ischemic conditions: increased the permeability
permeability of fluorescein sodium on loading of t-PA under ischemic conditions: increased the permeability
